B1: CPEB3 Ribozyme (parent)
chain: GGGGGCCACAGCAGAAGCGUUCACGUCGCGGCCCCUGUCAGAUUCUGGUGAAUCUGCGAAUUCUGCUGU

The variants in the series derive from B1. As to the kind of experiment: self-cleavage, relative activity (ratio to wild type); higher = more cleavage; co-transcriptional.
Turning to GGGGGCCACAGCAAAAGCGUUCACGUCGCGGGCCCUGUCAGAUUCUGGUGAAUCUGCGAAUUCUGCUGU [G14A C32G], the self-cleavage is 0.212.
In the case of GGGGGCCACAGCAAAAGCGUUCACGUCGCGGACCCUGUCAGAUUCUGGUGAAUCUGCGAAUUCUGCUGU [G14A C32A], the self-cleavage stood at 0.336.
Then GGGGGCCACAGCAAAAGCGUUCACGUCGCGGCCCCUGUAAGAUUCUGGUGAAUCUGCGAAUUCUGCUGU [G14A C39A], with 0.22; and GGGGGCCACAGCAAAAGAGUUCACGUCGCGGCCCCUGUCAGAUUCUGGUGAAUCUGCGAAUUCUGCUGU [G14A C18A], with 0.163; and GGGGGCCACAGCAAAAGGGUUCACGUCGCGGCCCCUGUCAGAUUCUGGUGAAUCUGCGAAUUCUGCUGU [G14A C18G], with 0.208.
Then GGGGGCCACAGCAAAAGUGUUCACGUCGCGGCCCCUGUCAGAUUCUGGUGAAUCUGCGAAUUCUGCUGU [G14A C18U], with 0.179; and GGGGGCCACAGCUGAAGCGUUCACGUCGCGGCCCCUGUCAGAUUCUGGUGAAUCUACGAAUUCUGCUGU [A13U G56A], with 0.688.
GGGGGCCACAGCUGAAGCGUUCACGUCGCGGCCCCUGUCAGAUUCUGGUGAAUCUCCGAAUUCUGCUGU [A13U G56C]: the self-cleavage was 0.31.
Take GGGGGCCACAGCAAAAGCGUUCACGUCGCGGCCCCUGUCAGAUUCUGGUGACUCUGCGAAUUCUGCUGU [G14A A52C]: the self-cleavage was determined as 0.688.
For GGGGGCCACAGCAAAAGCGUUCACGUCGCGGCCCCUGUCAGAUUCUGGUGAUUCUGCGAAUUCUGCUGU [G14A A52U], the self-cleavage came out at 0.643.
With GGGGGCCACAGCUGAAGCGUUCACGUCGCGGCCCCUGUCAGAUUCUGGUGAAUCUGCGAAUUCUGCAGU [A13U U67A], the self-cleavage turned out to be 0.629.
Turning to GGGGGCCACAGCUGAAGCGUUCACGUCGCGGCCCCUGUCAGAUUCUGGUGAAUCUGCGAAUUCUGCCGU [A13U U67C], the self-cleavage was 0.66.
Then GGGGGCCACAGCUGAAGCGUUCACGUCGCGGCCCCUGUCAGAUUCUGGUUAAUCUGCGAAUUCUGCUGU [A13U G50U], with 0.857; and GGGGGCCACAGCUGAAGCGUUCACGUCGCGGCCCCUGUCAGAUUCUGGUGAAUCAGCGAAUUCUGCUGU [A13U U55A], with 0.246; and GGGGGCCACAGCUGAAGCGUUCACGUCGCGGCCCCUGUCAGAUUCUGGUGAAUCGGCGAAUUCUGCUGU [A13U U55G], with 0.234.
As for GGGGGCCACAGCUGAAGCGUUCACGUCGCGGCCCCUGUCAGAUCCUGGUGAAUCUGCGAAUUCUGCUGU [A13U U44C], the self-cleavage is 0.345.
Regarding GGGGGCCACAGCUGAAGCGUUCACGUCGCGGCCCCUGUCAGAUGCUGGUGAAUCUGCGAAUUCUGCUGU [A13U U44G], the self-cleavage was found to be 0.575.
In the case of GGGGGCCACAGCAACAGCGUUCACGUCGCGGCCCCUGUCAGAUUCUGGUGAAUCUGCGAAUUCUGCUGU [G14A A15C], the self-cleavage was 0.305.
GGGGGCCACAGCAAAAGCGUUCACGUCGCGGCCCUUGUCAGAUUCUGGUGAAUCUGCGAAUUCUGCUGU [G14A C35U]: the self-cleavage stood at 0.668.
In the case of GGGGGCCACAGCUGAAGCGUUCACGUCGCGGCCCCUGUCAGAUUCUGGUGAAGCUGCGAAUUCUGCUGU [A13U U53G], the self-cleavage was 0.398.
In the case of GGGGGCCACAGCUGAAGCGUUCACGUCGCGGCCCCUGUCAGAUUCUGGUGAAACUGCGAAUUCUGCUGU [A13U U53A], the self-cleavage worked out at 0.514.
Consider GGGGGCCACAGCAAACGCGUUCACGUCGCGGCCCCUGUCAGAUUCUGGUGAAUCUGCGAAUUCUGCUGU [G14A A16C], for which the self-cleavage came to 0.136.
Consider GGGGGCCACAGCAAAGGCGUUCACGUCGCGGCCCCUGUCAGAUUCUGGUGAAUCUGCGAAUUCUGCUGU [G14A A16G], for which the self-cleavage was 0.463.
Consider GGGGGCCACAGCAAAUGCGUUCACGUCGCGGCCCCUGUCAGAUUCUGGUGAAUCUGCGAAUUCUGCUGU [G14A A16U], for which the self-cleavage was 0.353.
In the case of GGGGGCCACAGCUGAAGCGUUCACGUCGCGGCCCCUGCCAGAUUCUGGUGAAUCUGCGAAUUCUGCUGU [A13U U38C], the self-cleavage is 0.704.
As for GGGGGCCACAGCUGAAGCGUUCACGUCGCGGCCCCUGGCAGAUUCUGGUGAAUCUGCGAAUUCUGCUGU [A13U U38G], the self-cleavage is 0.198.
Regarding GGGGGCCACAGCUGAAGCGUUCACGUCGCGGCCCCUGACAGAUUCUGGUGAAUCUGCGAAUUCUGCUGU [A13U U38A], the self-cleavage came to 0.609.
In the case of GGGGGCCACAGCAAAAGCGUUCGCGUCGCGGCCCCUGUCAGAUUCUGGUGAAUCUGCGAAUUCUGCUGU [G14A A23G], the self-cleavage worked out at 0.444.
Take GGGGGCCACAGCAAAAGCGUUCCCGUCGCGGCCCCUGUCAGAUUCUGGUGAAUCUGCGAAUUCUGCUGU [G14A A23C]: the self-cleavage turned out to be 0.582.
Then GGGGGCCACAGCUGAAGCGUUCACGUCGCGGCCCCUGUCAGAUUCGGGUGAAUCUGCGAAUUCUGCUGU [A13U U46G], with 0.905; and GGGGGCCACAGCUGAAGCGUUCACGUCGCGGCCCCUGUCAGAUUCCGGUGAAUCUGCGAAUUCUGCUGU [A13U U46C], with 0.873.
For GGGGGCCACAGCUGAAGCGUUCACGUCGCGGCCCCUGUCAGAUUCAGGUGAAUCUGCGAAUUCUGCUGU [A13U U46A], the self-cleavage is 0.942.
Regarding GGGGGCCACAGCAAAAGCGUUCACGUCGCGGCCCCUGUCAGAUUCUGGUGAAUCUGCGGAUUCUGCUGU [G14A A59G], the self-cleavage was found to be 0.704.
In the case of GGGGGCCACAGCAAAAGCGUUCACGUCGCGGCCCCUGUCAGAUUCUGGUGAAUCUGCGUAUUCUGCUGU [G14A A59U], the self-cleavage came to 0.369.
Then GGGGGCCACAGCUGAAGCGUUCACGUCGCGGCCCCUGUCAGAUUCUGGUGAAUCUGCGAAUACUGCUGU [A13U U62A], with 0.438.
As to GGGGGCCACAGCAAAAGCGUUGACGUCGCGGCCCCUGUCAGAUUCUGGUGAAUCUGCGAAUUCUGCUGU [G14A C22G], the self-cleavage turned out to be 0.166.
In the case of GGGGGCCACAGCAAAAGCGUUCACGUCGCGGCCCCUGUCGGAUUCUGGUGAAUCUGCGAAUUCUGCUGU [G14A A40G], the self-cleavage came to 0.495.
For the variant GGGGGCCACAGCAAAAGCGUUCACGUCGCGGCCCCUGUCCGAUUCUGGUGAAUCUGCGAAUUCUGCUGU [G14A A40C], the self-cleavage worked out at 0.234.
With GGGGGCCACAGCUGAAGCGUUCACGUCGCGGCCCCUGUCAGAUUCUGGUGAAUCUGCAAAUUCUGCUGU [A13U G58A], the self-cleavage came to 0.758.

(Values after the RNAGym collection of RNA variant scans (doi:10.7554/elife.80360).)
